Drawing on the supplement of paper PMC10724198, this text covers protein stability index for 116 sequences.

± gives the standard deviation of the averaged measurements.
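Also: PSI is a weighted mean of sequencing reads over stability bins, variants kept only with over 10 reads, mCherry proximal and sfGFP distal, peptide attached via GGGS linker.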

This data set concerns Saccharomyces cerevisiae. The experiment in a line: protein stability index of tFT-peptide fusion (C-terminal peptide) (PSI (0-1 scale)); higher = more stable (slower turnover). The note with it: genetic background: wild type; temperature: 30 C. The procedure: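 Multiplexed protein stability (MPS) profiling in S. cerevisiae. Random 12-aa peptides (tFT-X12 library) are fused to the C-terminus of a sfGFP-mCherry tandem fluorescent timer, after mCherry and a GGGS linker. Cells are FACS-sorted into 8 mCherry/sfGFP bins and deep-sequenced. The protein stability index (PSI) is the read-weighted bin average, scaled from 0 (unstable) to 1 (stable). Only peptides with >10 reads are reported; cells were grown at 30 °C in SC-His with glucose.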
ATHSMSYRGSTK had a protein stability index of 0.662 ± 0.081.
Next, ATKKRKKKNKQT: 0.756 ± 0.11; ATLDVTALRQES: 0.636 ± 0.011; ATPVPTPRPAAP: 0.729 ± 0.048.
Next, ATPYGLTPNYSG: 0.676 ± 0.15; ATRRYQYSPHKV: 0.651 ± 0.026.
For ATTPPSSLFGPL, the protein stability index amounted to 0.768 ± 0.072.
ATVKRAVPPVFR: the protein stability index was 0.7 ± 0.041.
Take AVARYPPHCSHN: the protein stability index worked out at 0.768 ± 0.13.
Next, AVCVSVCGRLLV: 0.5492 ± 0.0023.
Next, AVGWQRQTEQRR: 0.684 ± 0.088; AVLGGLIYECVV: 0.634 ± 0.018.
The sequence AVLGRRSQHASA registered a protein stability index of 0.6832 ± 0.0036.
In turn, AVNADMHDKKIA came in with a protein stability index of 0.7 ± 0.036.
For the sequence AVPAPPPTLPPI, the protein stability index came to 0.685 ± 0.051.
Sequence AVPSPVTLPTTS registered a protein stability index of 0.641 ± 0.066.
On to AVQTTGRAGRVG, for which the protein stability index stood at 0.683 ± 0.056.
Regarding AVVRTVVCLNVL, the protein stability index worked out at 0.573 ± 0.013.
For the sequence AVVVCGGGGWWA, the protein stability index is 0.687 ± 0.068.
Next, AVVWMGAGVGGV: 0.718 ± 0.03.
AVWLGGGGRFVG: the protein stability index came out at 0.78 ± 0.034.
For AWAVGPTICRRG, the protein stability index is 0.7219 ± 0.0021.
Take AWLPVLPLVSFF: the protein stability index worked out at 0.621 ± 0.062.
AWLTTSGLVGSD yielded a protein stability index of 0.725 ± 0.029.
The sequence AYYRPQNLSPVT registered a protein stability index of 0.675 ± 0.083.
CAADYRRHLQRP: the protein stability index amounted to 0.669 ± 0.026.
Regarding CAAVPLLASDVR, the protein stability index was 0.688 ± 0.011.
Consider CAAYIYLGGSFF, for which the protein stability index was found to be 0.707 ± 0.033.
Turning to CACIPLHFAPSL, the protein stability index turned out to be 0.683 ± 0.04.
Turning to CANFIGAVPGSV, the protein stability index was found to be 0.686 ± 0.011.
Regarding CAQLVLDNHTGP, the protein stability index worked out at 0.69 ± 0.079.
The sequence CAVLGGGVVWGA displayed a protein stability index of 0.668 ± 0.028.
Take CAVPAVIDLDKF: the protein stability index was determined as 0.65 ± 0.087.
In turn, CCADPWRIARPW yielded a protein stability index of 0.729 ± 0.042.
Next, CCCGSGFFLLKV: 0.525 ± 0.021; CCFPPLSPPASP: 0.656 ± 0.072; CCGHEFEIYNWV: 0.786 ± 0.1.
The sequence CCILTHFSSCET yielded a protein stability index of 0.679 ± 0.011.
CCTPSFANVRDG showed a protein stability index of 0.6998 ± 0.0027.
Next, CECAEGRGKDRS: 0.591 ± 0.0069.
Next, CELCVCKHGGKG: 0.702 ± 0.013.
The sequence CFASTFVSPILH showed a protein stability index of 0.694 ± 0.03.
Next, CFFVRLSSFYCS: 0.63 ± 0.0089.
For the sequence CFLFSFSLFPFV, the protein stability index stood at 0.618 ± 0.066.
For CFPALSGVQGGM, the protein stability index turned out to be 0.706 ± 0.082.
In the case of CFPPLPPPPPPS, the protein stability index was found to be 0.736 ± 0.0077.
CFPRVLFPVAAP yielded a protein stability index of 0.608 ± 0.049.
In turn, CFPSSVPFPSLL had a protein stability index of 0.778 ± 0.058.
CFVLPWHVPFGF: the protein stability index was 0.715 ± 0.021.
CGCGCPSRVLVS had a protein stability index of 0.643 ± 0.061.
Next, CGCSLPGFCFLA: 0.53 ± 0.022.
Sequence CGDAGSVGCVYV showed a protein stability index of 0.699 ± 0.055.
The sequence CGEGGVCRLVFS yielded a protein stability index of 0.682 ± 0.0074.
Regarding CGGAADWRDWGW, the protein stability index came out at 0.775 ± 0.086.
CGGFAEGGGCRM: the protein stability index was found to be 0.697 ± 0.028.
For CGLFFSCVGVSG, the protein stability index stood at 0.6411 ± 0.005.
Turning to CGQGRSVPFRSV, the protein stability index amounted to 0.658 ± 0.0094.
On to CGQKREFKEGGG, for which the protein stability index was found to be 0.634 ± 0.0059.
In the case of CGWLTCSAGFCA, the protein stability index stood at 0.726 ± 0.11.
On to CGWSQLCRDSES, for which the protein stability index turned out to be 0.675 ± 0.042.
With CGYVSGGWAGNV, the protein stability index is 0.691 ± 0.025.
The sequence CHTDLPLLGTSR registered a protein stability index of 0.681 ± 0.022.
CHTESKLKRKKW returned a protein stability index of 0.645 ± 0.028.
CIPCLLAYPETC: the protein stability index is 0.655 ± 0.14.
With CIRPPPPSPKLM, the protein stability index turned out to be 0.694 ± 0.0096.
On to CISIRKEERRKI, for which the protein stability index was 0.7012 ± 0.0019.
CKCRRYYTLNGG: the protein stability index stood at 0.656 ± 0.025.
Consider CKFPSLCVLSSV, for which the protein stability index amounted to 0.654 ± 0.07.
The sequence CKHPAWFQPRVG came in with a protein stability index of 0.618 ± 0.044.
As to CKIGMFIRWIGG, the protein stability index turned out to be 0.571 ± 0.04.
Next, CKLDVMSRSFVG: 0.664 ± 0.0089.
With CKNRLKMKQESK, the protein stability index is 0.658 ± 0.028.
Next, CLAFDLGLSPLF: 0.755 ± 0.099; CLEGCTIHTSGE: 0.652 ± 0.015; CLFWWDASTILP: 0.68 ± 0.13.
CLGGRRVCRCKG: the protein stability index is 0.631 ± 0.054.
Sequence CLGVCAFSFCCN showed a protein stability index of 0.624 ± 0.012.
Regarding CLLPGSSYSFTS, the protein stability index came to 0.712 ± 0.045.
In turn, CLMHTENCIRKA came in with a protein stability index of 0.674 ± 0.032.
Next, CLRDTLTCLFFF: 0.5953 ± 0.0044; CLRGLLVMLYQR: 0.54 ± 0.01; CLRRGGAGEGAS: 0.687 ± 0.0037.
CLRWSRVGTVVV returned a protein stability index of 0.564 ± 0.025.
Take CLSDPDVVRVLS: the protein stability index was determined as 0.6914 ± 0.0018.
CLSLLWRVLDLW: the protein stability index worked out at 0.688 ± 0.065.
CLWGQWAVGCMG had a protein stability index of 0.6169 ± 0.0019.
Next, CNGPRLFDKSPI: 0.695 ± 0.017; CNRVSLSNVRLF: 0.6675 ± 0.00083.
Sequence CPFPLPPPTLPP returned a protein stability index of 0.657 ± 0.01.
Next, CPGVLVLMCGRP: 0.589 ± 0.009; CPLLSCAAFLSS: 0.719 ± 0.025; CPLLSPTPPLRP: 0.703 ± 0.019.
Sequence CPPLEWSLRYPV had a protein stability index of 0.722 ± 0.017.
With CPPRIAFPCGIQ, the protein stability index was found to be 0.649 ± 0.094.
Next, CPPRPLHSPLPP: 0.694 ± 0.022; CRGGLGASCRGR: 0.67 ± 0.008; CRGGPLGYGCGS: 0.827 ± 0.17.
On to CRGRGGCPMSWR, for which the protein stability index is 0.689 ± 0.1.
Next, CRGRSGMCNLET: 0.751 ± 0.04.
Next, CRGWVRVAGLRA: 0.604 ± 0.085.
CRKIKFIQKINK displayed a protein stability index of 0.623 ± 0.046.
Next, CRLRLVYCVKYD: 0.621 ± 0.013; CRMPLFGSYPLG: 0.683 ± 0.022.
Next, CRSNISDLFSSV: 0.7793 ± 0.0063.
For the sequence CSEDMVGSIVVV, the protein stability index is 0.651 ± 0.041.
Sequence CSFFGPGFICSL displayed a protein stability index of 0.666 ± 0.013.
In turn, CSLFIRCAPFCG yielded a protein stability index of 0.705 ± 0.017.
The sequence CSLFRCSKVVLG gave a protein stability index of 0.672 ± 0.037.
With CSLGLGGRVAAL, the protein stability index worked out at 0.697 ± 0.048.
CSLSYFSAHCVP displayed a protein stability index of 0.665 ± 0.044.
As to CSLTVGYNRHDV, the protein stability index came to 0.635 ± 0.00084.
CSLVWPGSMSVD: the protein stability index amounted to 0.738 ± 0.033.
Turning to CSNKIILMTRNN, the protein stability index was 0.564 ± 0.041.
The sequence CSPLNFGNGLLL gave a protein stability index of 0.584 ± 0.013.
Next, CSRTIGGFLWDQ: 0.6994 ± 0.0054; CSSLPPCPYSLP: 0.654 ± 0.12.
